What was measured:
[1] = target: T1, MHC class I allele B*0702 (bound via biotin to streptavidin-coated plate); assay: iTopia peptide binding assay
T1 construct: iTopia MHC class I monomer on the plate; placeholder peptide and b2M removed, then reconstituted with test peptide and fresh b2M; also called B7; HLA B7
Method: (§1) The 9 mers were tested for Peptide Binding, Off Rate and Affinity using iTopia Epitope Discovery System in accordance with the manufacturer's instructions. Briefly, 96 well microtitre plates coated with MHC molecules representing different MHC alleles are used to identify candidate peptides. […] Determinations are performed in duplicate using an ELISA plate reader and included allele specific positive controls.
(§2) i) Peptide Binding—This assay measures the ability of individual peptides to bind to the MHC molecules under standardized optimal binding conditions. The assay is performed for all the test peptides across the selected MHC alleles. The test peptides identified as “binders” are characterized further in terms of affinity and dissociation experiments.

[2] = target: T2, MHC class I allele A*0301 (bound via biotin to streptavidin-coated plate); assay: iTopia peptide binding assay
T2 construct: iTopia MHC class I monomer on the plate; placeholder peptide and b2M removed, then reconstituted with test peptide and fresh b2M; also called A3; HLA A3
Method: as §1, §2

[3] = target: T3, MHC class I allele A*0201 (bound via biotin to streptavidin-coated plate); assay: iTopia peptide binding assay
T3 construct: iTopia MHC class I monomer on the plate; placeholder peptide and b2M removed, then reconstituted with test peptide and fresh b2M; also called A2; HLA A2
Method: as §1, §2

[4] = target: T4, MHC class I allele A*0101 (bound via biotin to streptavidin-coated plate); assay: iTopia peptide binding assay
T4 construct: iTopia MHC class I monomer on the plate; placeholder peptide and b2M removed, then reconstituted with test peptide and fresh b2M; also called A1; HLA A1
Method: as §1, §2

[5] = target: T5, MHC class I allele A*0101 monomer (human, biotinylated, bound to streptavidin-coated plate); assay: iTopia, multiparametric iScore
T5 construct: placeholder peptide and b2M removed, then reconstituted with test peptide and fresh b2M; also called A1; HLA-A1
Method: as §1
(§3) Finally, multiparametric analysis is performed on the results from these assays and an iScore is generated. The iScore represents a measure of the overall quality of peptide-MHC binding, enabling candidate peptides to be ranked in order of binding quality and allowing rational prioritisation of peptides for functional cellular follow-up studies.

[6] = target: T6, MHC class I allele B*0702 monomer (human, biotinylated, bound to streptavidin-coated plate); assay: iTopia, multiparametric iScore
T6 construct: also called B7; HLA-B7
Method: as §1, §3

[7] = target: T7, MHC class I allele A*0301 monomer (human, biotinylated, bound to streptavidin-coated plate); assay: iTopia, multiparametric iScore
T7 construct: also called A3; HLA-A3
Method: as §1, §3

[8] = target: T8, MHC class I allele A*0201 monomer (human, biotinylated, bound to streptavidin-coated plate); assay: iTopia, multiparametric iScore
T8 construct: also called A2; HLA-A2
Method: as §1, §3

| Binder | % of positive control peptide binding [1] | % of positive control peptide binding [2] | % of positive control peptide binding [3] | % of positive control peptide binding [4] | iScore [5] | iScore [6] | iScore [7] | iScore [8] |
| --- | --- | --- | --- | --- | --- | --- | --- | --- |
| APFLASAVS (also called Peptide No 23) [5T4 9 mer peptide 23 APFLASAVS] | 37% | 0% | 15% | 1% |  |  |  |  |
| ASAVSAQPP (also called Peptide No 25) [5T4 9 mer peptide 25 ASAVSAQPP] | 0% | 0% | 5% | 2% |  |  |  |  |
| SAQPPLPDQ (also called Peptide No 27) [5T4 9 mer peptide 27 SAQPPLPDQ] | 3% | 0% | 13% | 2% |  |  |  |  |
| MPGGCSRGP (also called Peptide No 1) [5T4 9 mer peptide 1 MPGGCSRGP] | 3% | 0% | 9% | 0% |  |  |  |  |
| QPPLPDQCP (also called Peptide No 28) [5T4 9 mer peptide 28 QPPLPDQCP] | 3% | 1% | 5% | 6% |  |  |  |  |
| PDQCPALCE (also called Peptide No 30) [5T4 9 mer peptide 30 PDQCPALCE] | 1% | 0% | 3% | 5% |  |  |  |  |
| QCPALCECS (also called Peptide No 31) [5T4 9 mer peptide 31 QCPALCECS] | 0% | 0% | 2% | 3% |  |  |  |  |
| PALCECSEA (also called Peptide No 32) [5T4 9 mer peptide 32 PALCECSEA] | 0% | 0% | 19% | 4% |  |  |  |  |
| LCECSEAAR (also called Peptide No 33) [5T4 9 mer peptide 33 LCECSEAAR] | 0% | 0% | 6% | 3% |  |  |  |  |
| ECSEAARTV (also called Peptide No 34) [5T4 9 mer peptide 34 ECSEAARTV] | 0% | 0% | 4% | 2% |  |  |  |  |
| SEAARTVKC (also called Peptide No 35) [5T4 9 mer peptide 35 SEAARTVKC] | 0% | 0% | 1% | 5% |  |  |  |  |
| RTVKCVNRN (also called Peptide No 37) [5T4 9 mer peptide 37 RTVKCVNRN] | 3% | 12% | 12% | 7% |  |  |  |  |
| IFLLVLYLN [5T4 9-mer peptide 185] |  |  |  |  | 0 | 0 | 0 | 0 |
| YLNRKGIKK [5T4 9-mer peptide 188] |  |  |  |  | 0 | 0.089 | 0.065 | 0.118 |
| NRKGIKKWM [5T4 9-mer peptide 189] |  |  |  |  | 0 | 0 | 0 | 0.138 |
| KGIKKWMHN [5T4 9-mer peptide 190] |  |  |  |  | 0 | 0 | 0 | 0 |

| Binder | % of positive control peptide binding [1] | % of positive control peptide binding [2] | % of positive control peptide binding [3] | % of positive control peptide binding [4] | iScore [5] | iScore [6] | iScore [7] | iScore [8] |
| --- | --- | --- | --- | --- | --- | --- | --- | --- |
| IKKWMHNIR [5T4 9-mer peptide 191] |  |  |  |  | 0 | 0 | 0 | 0.181 |
| KWMHNIRDA [5T4 9-mer peptide 192] |  |  |  |  | 0 | 0 | 0 | 0.45 |
| MHNIRDACR [5T4 9-mer peptide 193] |  |  |  |  | 0 | 0 | 0 | 0.093 |
| NIRDACRDH [5T4 9-mer peptide 194] |  |  |  |  | 0 | 0 | 0 | 0 |
| RDACRDHME [5T4 9-mer peptide 195] |  |  |  |  | 0 | 0 | 0 | 0.08 |
| ACRDHMEGY [5T4 9-mer peptide 196] |  |  |  |  | 0 | 0 | 0 | 0 |
| RDHMEGYHY [5T4 9-mer peptide 197] |  |  |  |  | 0 | 0 | 0 | 0 |
| EGYHYRYEI [5T4 9-mer peptide 199] |  |  |  |  | 0 | 0 | 0 | 0 |
| YHYRYEINA [5T4 9-mer peptide 200] |  |  |  |  | 0 | 0 | 0 | 0 |
| YRYEINADP [5T4 9-mer peptide 201] |  |  |  |  | 0 | 0 | 0 | 0 |
| YEINADPRL [5T4 9-mer peptide 202] |  |  |  |  | 0 | 0 | 0 | 0.077 |
| INADPRLTN [5T4 9-mer peptide 203] |  |  |  |  | 0 | 0 | 0 | 0 |
| ADPRLTNLS [5T4 9-mer peptide 204] |  |  |  |  | 0 | 0.094 | 0 | 0 |
| PRLTNLSSN [5T4 9-mer peptide 205] |  |  |  |  | 0 | 0 | 0 | 0 |
| LTNLSSNSD [5T4 9-mer peptide 206] |  |  |  |  | 0 | 0 | 0 | 0.027 |
| RLRLARLAL (also called Peptide No 8) [5T4 9 mer peptide 8 RLRLARLAL] | 46% | 43% |  | 3% |  |  |  |  |

Reference: patent US20090280138A1 (OXFORD BIOMEDICA UK, published 2009)
